Key:
[1] = biological target: human monomeric EGFR (EGFR.mmh) (human) (UniProt P00533); experiment: SPR 37C, mAb captured by anti-human Fc, EGFR.mmh analyte
[2] = biological target: human dimeric EGFR (EGFR.mFc) (human); experiment: SPR 37C, mAb captured by anti-human Fc, EGFR.mFc analyte
[3] = biological target: EGFR on A431 epidermoid carcinoma cells (human) (UniProt P00533); experiment: cell-based or functional assay

| Substance | Kd [1] [nM] | koff [1] [s⁻¹] | kon [1] [M⁻¹ s⁻¹] | t1/2 [1] [min] | Kd [2] [nM] | koff [2] [s⁻¹] | kon [2] [M⁻¹ s⁻¹] | t1/2 [2] [h] | ADCC EC50 [3] [Molar] | IC50 of A431 Proliferation [3] [Molar] | Maximum Cell Killing (%) [3] [%] |
| --- | --- | --- | --- | --- | --- | --- | --- | --- | --- | --- | --- |
| Control I: a chimeric anti-EGFR antibody with heavy and light chain variable sequences of "mAb 225" as set forth in U.S. Pat. No. 7,060,808 | 4.68 | 0.00738 | 1.58e+06 | 2 | 0.0303 | 0.000108 | 3.55e+06 | 1.78 | 1.86e-12 | 3.35e-10 | 24 |
| Control II: a commercially available fully human monoclonal anti-EGFR antibody designated as ABX-EGF |  |  |  |  | 0.0423 |  |  | 3.3 |  |  |  |

From patent US20180036405A1
